Experimental data from patent US20160097044A1, “Antimicrobial Enzyme Fusions Reduce Resistance and Kill Intracellular Staphylococcus aureus” (The United States of America, as Represented by the …, priority 2014, published 2016).

B1: K: 495 amino-acid staphylococcal phage K endolysin LysK, C-terminal His6 tag; SEQ ID NO:3 (protein)
chain: MAKTQAEINKRLDAYAKGTVDSPYRVKKATSYDPSFGVMEAGAIDADGYYHAQCQDLITDYVLWLTDNKVRTWGNAKDQIKQSYGTGFKIHENKPSTVPKKGWIAVFTSGSYEQWGHIGIVYDGGNTSTFTILEQNWNGYANKKPTKRVDNYYGLTHFIEIPVKAGTTVKKETAKKSASKTPAPKKKATLKVSKNHINYTMDKRGKKPEGMVIHNDAGRSSGQQYENSLANAGYARYANGIAHYYGSEGYVWEAIDAKNQIAWHTGDGTGANSGNFRFAGIEVCQSMSASDAQFLKNEQAVFQFTAEKFKEWGLTPNRKTVRLHMEFVPTACPHRSMVLHTGFNPVTQGRPSQAIMNKLKDYFIKQIKNYMDKGTSSSTVVKDGKTSSASTPATRPVTGSWKKNQYGTWYKPENATFVNGNQPIVTRIGSPFLNAPVGGNLPAGATIVYDEVCIQAGHIWIGYNAYNGNRVYCPVRTCQGVPPNQIPGVAWGVFKLEHHHHHH
modifications: C-terminal His6 tag; Phage K
B2: L-K: LysK lytic domains inserted between lysostaphin's M23 endopeptidase domain and SH3b cell wall binding domain; SEQ ID NO:7, protein SEQ ID NO:8 (protein)
chain: MAATHEHSAQWLNNYKKGYGYGPYPLGINGGMHYGVDFFMNIGTPVKAISSGKIVEAGWSNYGGGNQIGLIENDGVHRQWYMHLSKYNVKVGDYVKAGQIIGWSGSTGYSTAPHLHFQRMVNSFSNSTAQDPMPFLKSAGYGKAGGTVTPTPNTGLDAKTQAEINKRLDAYAKGTVDSPYRVKKATSYDPSFGVMEAGAIDADGYYHAQCQDLITDYVLWLTDNKVRTWGNAKDQIKQSYGTGFKIHENKPSTVPKKGWIAVFTSGSYEQWGHIGIVYDGGNTSTFTILEQNWNGYANKKPTKRVDNYYGLTHFIEIPVKAGTTVKKETAKKSASKTPAPKKKATLKVSKNHINYTMDKRGKKPEGMVIHNDAGRSSGQQYENSLANAGYARYANGIAHYYGSEGYVWEAIDAKNQIAWHTGDGTGANSGNFRFAGIEVCQSMSASDAQFLKNEQAVFQFTAEKFKEWGLTPNRKTVRLHMEFVPTACPHRSMVLHTGFNPVTQGRPSQAIMNKLKDYFIKQIKNYMDKGTSSSTVVKDGKTSSASLDTVTPTPNTGWKTNKYGTLYKSESASFTPNTDIITRTTGPFRSMPQSGVLKAGQTIHYDEVMKQDGHVWVGYTGNSGQRIYLPVRTWNKSTNTLGVLWGTIKLEHHHHHH
modifications: Staphylococcus simulans & Phage K

Key:
S. simulans MP03 = experiment: Minimum Inhibitory Concentration (MIC) assay; format: cell-based, Staphylococcus simulans; conditions: Mastitis isolate S. simulans MP03
S. chromogenes MP02 = experiment: Minimum Inhibitory Concentration (MIC) assay; format: cell-based, Staphylococcus chromogenes; conditions: Mastitis isolate S. chromogenes MP02
S. aureus ALR = experiment: Minimum Inhibitory Concentration (MIC) assay; format: cell-based; conditions: for Minimum Inhibitory Conc. (median μg/ml): S. aureus ALR
Experimental: The Minimum Inhibitory Concentrations (MIC) of each protein for multiple S. aureus strains was determined as previously described (Jones et al. 1985. In: Manual of Clinical Microbiology, Eds. Balows et al. American Society of Microbiology, Washington D.C., pp. 972-977) with the following modifications. Enzymes were serially diluted two fold across a 96 well plate, such that after dilution, 50 μl of the enzyme solution in 300 mM NaCl, 50 mM NaH2PO4, 30% glycerol pH 7.5, remained in each well. To each well was added 50 μl of TSB and 100 μl of S. aureus Newman in TSB (diluted to 5×10^6 cells/ml). The plates were incubated 20 h at 37° C. and read with a 96 well plate reader. MIC determination values were reported as the median of ≧4 replicates (Table 1).

S. warneri MP06 = experiment: Minimum Inhibitory Concentration (MIC) assay; format: cell-based, Staphylococcus warneri; conditions: Mastitis isolate S. warneri MP06
S. aureus strain ALR = experiment: Rat nasal colonization model; format: in vivo, Wistar rats; conditions: for reduction of nasal bacterial load (in words): equimolar concentrations, intranasally twice a day on days 5, 6, 7
Source text: FIGS. 1a-1c depict peptidoglycan hydrolase construct schematics, resistance development and effectiveness in eradicating S. aureus carriage in a rat colonization model. FIG. 1a is a schematic of the peptidoglycan hydrolase constructs. Domains: CHAP endopeptidase (CHAP, red box); N-acetylmuramoyl-L-alanine amidase (AMID, green box); M23 endopeptidase (PEP, blue oval); CBDs (LysK SH3b, gold diamond; lysostaphin SH3b, gold diamond with dot); protein transduction domain (PTD, blue circle); hexahistidine purification tag (His6). Domains are not to scale. Specific peptidoglycan cut sites are illustrated in FIG. 3a. FIG. 1b depicts in vitro antimicrobial resistance development. Engineered triple fusions K-L and L-K suppress antimicrobial resistance development compared to LysK (K), lysostaphin (L), or a combination of equimolar concentrations of both (L+K). Changes in Minimum Inhibitory Concentrations (MIC) are depicted as a fold-change at the tenth round of sublethal exposure compared to the first exposure, with the average fold-change of 4 replicates in red. Error bars=SEM. First exposure MICs: Lysostaphin, 0.77 μg/ml (27 nM); LysK, 47 μg/ml (840 nM); Lysostaphin and LysK (L+K) in combination 0.2 μg/ml (7 nM and 3 nM, respectively); triple fusion K-L, 7 μg/ml (97 nM); triple fusion L-K, 7.8 μg/ml (107 nM). FIG. 1c depicts reduction in colonization in a rat nasal carriage model. Rats were inoculated with S. aureus strain ALR on Day 1. After 5 days, the rats were treated twice daily for 3 days with 20 μl of a 10 mg/ml solution of each enzyme. The rat noses were excised on day 10, homogenized, and quantitative cultures were performed. Each point represents the CFU recovered from an individual rat. Bars indicate the median CFU/nose recovered from treated rats. […] Data were compiled from five independent experiments. Lyso=commercially purchased lysostaphin (AMBI, Tarrytown, N.Y.). Statistical comparisons were made with the Mann-Whitney test. SEQ ID NOs of depicted peptidoglycan hydrolase constructs: Lysostaphin (SEQ ID NO:1); Lysostaphin-PTD1-4, 6-12 (SEQ ID NOs:9, 11, 13, 15, 17, 19, 21, 23, 25, 27, 29, respectively); LysK (SEQ ID NO:3); LysK-PTD1-11 (SEQ ID NOs: 31, 33, 35, 37, 39, 41, 43, 45, 47, 49, 51, respectively); LysK-Lysostaphin Fusion K-L (SEQ ID NO:5); K-L-PTD1-4, 6-11 (SEQ ID NOs:53, 55, 57, 59, 61, 63, 65, 67, 69, 71, respectively); Lysostaphin-LysK Fusion L-K (SEQ ID NO:7).
Reduction in nasal colonization was observed when rats were challenged on day 0 with 10^7 CFU S. aureus strain ALR and then treated twice per day on days 5, 6, and 7 with 10 μl of 2% mupirocin calcium ointment (Bactroban Nasal) or petrolatum/softisan placebo. Noses from rats were homogenized and cultured quantitatively on day 10. Each point represents the CFU recovered from an individual rat, and the data were compiled from two independent experiments. Data were analyzed by the Mann-Whitney test, and horizontal lines represent median values. Mupirocin reduced colonization ˜98% compared to the placebo control.
The rat nasal colonization model is an adaptation of the mouse nasal colonization model that we described previously (Schaffer et al. 2006. Infect. Immun. 74:2145-2153). All animal experiments were conducted in accordance with a protocol approved by the appropriate Institutional Animal Care and Use Committees. Wistar rats (5 to 6 wks of age) were obtained from Charles River Laboratories (Wilmington, Mass.) and given food and water ad libitum. The animals were housed two per cage in a modified barrier facility under viral antibody-free conditions. The rats were given drinking water containing streptomycin sulfate (0.5 g/liter; Sigma) 1 day prior to bacterial inoculation and for the course of the experiment. The drinking water and cages were changed three times per week. […]

S. hyicus MP01 = experiment: Minimum Inhibitory Concentration (MIC) assay; format: cell-based, Staphylococcus hyicus; conditions: Mastitis isolate S. hyicus MP01
S. aureus strain Newman = format: cell-based; conditions: tenth round compared to first exposure
Experimental: For the MIC repeated exposure method, MIC determinations were performed with S. aureus strain Newman. 100 μl of S. aureus strain Newman culture that survived at ½ the MIC (the first well with visible growth) for each round was inoculated into 5 ml TSB and cultivated to mid-log phase growth. This culture was used as the inoculum for the next round of MIC exposure (overnight growth), and the cycle was repeated for 10 rounds.
Development of resistance to the triple-acting fusion enzymes was tested on S. aureus strain Newman and compared to both parental enzymes applied individually or simultaneously. […] Survivors of the ten round exposure to peptidoglycan hydrolase were passaged five times in medium with no peptidoglycan hydrolase added. […] We compared our triple-acting fusions to small molecule antibiotics in similar assays.

Row | Molecule | Minimum Inhibitory Conc. (median μg/ml) (S. simulans MP03) [µg/mL] | Minimum Inhibitory Conc. (median μg/ml) (S. chromogenes MP02) [µg/mL] | Minimum Inhibitory Conc. (median μg/ml) (S. aureus ALR) [µg/mL] | Minimum Inhibitory Conc. (median μg/ml) (S. warneri MP06) [µg/mL] | reduction of nasal bacterial load (in words) (S. aureus strain ALR) | Minimum Inhibitory Conc. (median μg/ml) (S. hyicus MP01) [µg/mL] | increase in MIC after 10 rounds of sub-lethal exposure (S. aureus strain Newman) [fold] | MIC for S. aureus ALR (comparison for post-treatment isolates) (S. aureus ALR; N=8, value ± spread) [µg/mL] | decrease in CFU/nose (nasal colonization) compared to rats treated with buffer (S. aureus strain ALR; 200 μg intranasally twice a day on days 5, 6, 7, noses cultured day 10) [%] | bacterial load reduction relative to either parental enzyme (S. aureus strain ALR; rat nasal decolonization model)
1 | K-L: both LysK lytic domains fused to the N-terminus of lysostaphin; SEQ ID NO:5, protein SEQ ID NO:6 | 3.5 | 3.5 | 7.0 | 5.3 | unable to significantly reduce the bacterial load | 1.8 | 8 |  |  | 
2 | L: 247 amino acid mature (secreted) lysostaphin, staphylolytic bacteriocin, C-terminal His6 tag; SEQ ID NO:1 [reference compound] | 1.5 | 0.58 | 0.77 | 1.5 |  | 0.29 | 585 |  |  | 
3 | B1 | 20 | 16 | 34 | 28 | unable to significantly reduce the bacterial load | 8.4 | 42 |  |  | 
4 | B2 | 5.9 | 0.37 | 4.4 | 1.5 |  | 0.37 | 2 | 9.4 ± 6.1 | 98 | 5-10 fold
